Assay results: the supplement of paper PMC10065799, “High-throughput profiling of sequence recognition by tyrosine kinases and SH2 domains using bacterial peptide display” (eLife, 2023)

Assays:
AncSZ = experiment: phosphorylation enrichment, bacterial display (enrichment ratio); higher = better substrate or ligand; peptides without Tyr show the background
FGFR3 = FGFR3 (UniProt P22607); experiment: as above
Fyn = Fyn (UniProt P06241); experiment: as above
Fes = Fes (UniProt P07332); experiment: as above
Chain of Fes (P07332 whole entry, looked up): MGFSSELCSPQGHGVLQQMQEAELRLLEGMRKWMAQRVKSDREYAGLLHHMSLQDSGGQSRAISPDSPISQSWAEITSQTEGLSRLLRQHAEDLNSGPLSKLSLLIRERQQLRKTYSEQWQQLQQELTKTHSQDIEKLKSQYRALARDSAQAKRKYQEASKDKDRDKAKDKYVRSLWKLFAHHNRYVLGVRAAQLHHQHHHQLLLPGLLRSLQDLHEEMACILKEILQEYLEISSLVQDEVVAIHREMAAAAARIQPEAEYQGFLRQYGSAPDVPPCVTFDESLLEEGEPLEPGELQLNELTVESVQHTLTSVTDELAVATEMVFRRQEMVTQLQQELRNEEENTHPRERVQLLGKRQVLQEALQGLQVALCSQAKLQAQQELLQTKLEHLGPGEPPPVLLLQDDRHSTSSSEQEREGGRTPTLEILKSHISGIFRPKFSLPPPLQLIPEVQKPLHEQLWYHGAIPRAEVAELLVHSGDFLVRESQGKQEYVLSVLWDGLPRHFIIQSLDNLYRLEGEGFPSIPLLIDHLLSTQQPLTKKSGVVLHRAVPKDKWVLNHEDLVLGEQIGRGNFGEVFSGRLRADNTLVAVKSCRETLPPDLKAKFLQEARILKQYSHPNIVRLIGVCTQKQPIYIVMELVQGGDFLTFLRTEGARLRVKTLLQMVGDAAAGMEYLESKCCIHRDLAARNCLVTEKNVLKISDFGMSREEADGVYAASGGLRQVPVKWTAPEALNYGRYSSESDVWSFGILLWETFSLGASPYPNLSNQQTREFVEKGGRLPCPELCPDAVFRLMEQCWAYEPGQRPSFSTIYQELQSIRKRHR

MERTK = MERTK (UniProt Q12866); experiment: as above
Chain of MERTK (Q12866 whole entry, looked up): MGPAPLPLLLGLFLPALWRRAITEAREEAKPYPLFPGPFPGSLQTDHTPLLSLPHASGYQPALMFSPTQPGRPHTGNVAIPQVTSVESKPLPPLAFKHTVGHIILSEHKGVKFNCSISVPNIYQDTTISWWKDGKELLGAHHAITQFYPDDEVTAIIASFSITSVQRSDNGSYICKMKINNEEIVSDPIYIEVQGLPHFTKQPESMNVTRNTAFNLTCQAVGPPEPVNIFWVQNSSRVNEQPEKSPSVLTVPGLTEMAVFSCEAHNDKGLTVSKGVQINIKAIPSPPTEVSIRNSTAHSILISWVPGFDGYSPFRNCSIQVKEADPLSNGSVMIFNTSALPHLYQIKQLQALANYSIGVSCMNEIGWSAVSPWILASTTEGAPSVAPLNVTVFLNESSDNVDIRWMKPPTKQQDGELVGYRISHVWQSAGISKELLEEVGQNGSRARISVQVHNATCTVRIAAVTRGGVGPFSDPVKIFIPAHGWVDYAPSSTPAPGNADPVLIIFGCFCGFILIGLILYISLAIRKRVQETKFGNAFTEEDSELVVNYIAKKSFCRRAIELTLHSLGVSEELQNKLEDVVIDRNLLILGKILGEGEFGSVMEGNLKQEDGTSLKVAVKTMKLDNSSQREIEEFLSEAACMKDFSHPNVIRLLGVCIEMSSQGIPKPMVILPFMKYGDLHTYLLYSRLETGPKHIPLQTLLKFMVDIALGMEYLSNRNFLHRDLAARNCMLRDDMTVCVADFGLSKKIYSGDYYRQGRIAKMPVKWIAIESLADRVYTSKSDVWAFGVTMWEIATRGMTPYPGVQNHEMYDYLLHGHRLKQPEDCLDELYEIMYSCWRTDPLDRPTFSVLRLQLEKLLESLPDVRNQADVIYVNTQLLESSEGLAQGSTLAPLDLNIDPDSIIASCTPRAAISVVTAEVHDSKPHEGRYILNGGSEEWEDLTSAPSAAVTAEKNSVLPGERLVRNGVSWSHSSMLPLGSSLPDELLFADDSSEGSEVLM

Jak2 = Jak2 (UniProt O60674); experiment: as above
Chain of Jak2 (O60674 whole entry, looked up): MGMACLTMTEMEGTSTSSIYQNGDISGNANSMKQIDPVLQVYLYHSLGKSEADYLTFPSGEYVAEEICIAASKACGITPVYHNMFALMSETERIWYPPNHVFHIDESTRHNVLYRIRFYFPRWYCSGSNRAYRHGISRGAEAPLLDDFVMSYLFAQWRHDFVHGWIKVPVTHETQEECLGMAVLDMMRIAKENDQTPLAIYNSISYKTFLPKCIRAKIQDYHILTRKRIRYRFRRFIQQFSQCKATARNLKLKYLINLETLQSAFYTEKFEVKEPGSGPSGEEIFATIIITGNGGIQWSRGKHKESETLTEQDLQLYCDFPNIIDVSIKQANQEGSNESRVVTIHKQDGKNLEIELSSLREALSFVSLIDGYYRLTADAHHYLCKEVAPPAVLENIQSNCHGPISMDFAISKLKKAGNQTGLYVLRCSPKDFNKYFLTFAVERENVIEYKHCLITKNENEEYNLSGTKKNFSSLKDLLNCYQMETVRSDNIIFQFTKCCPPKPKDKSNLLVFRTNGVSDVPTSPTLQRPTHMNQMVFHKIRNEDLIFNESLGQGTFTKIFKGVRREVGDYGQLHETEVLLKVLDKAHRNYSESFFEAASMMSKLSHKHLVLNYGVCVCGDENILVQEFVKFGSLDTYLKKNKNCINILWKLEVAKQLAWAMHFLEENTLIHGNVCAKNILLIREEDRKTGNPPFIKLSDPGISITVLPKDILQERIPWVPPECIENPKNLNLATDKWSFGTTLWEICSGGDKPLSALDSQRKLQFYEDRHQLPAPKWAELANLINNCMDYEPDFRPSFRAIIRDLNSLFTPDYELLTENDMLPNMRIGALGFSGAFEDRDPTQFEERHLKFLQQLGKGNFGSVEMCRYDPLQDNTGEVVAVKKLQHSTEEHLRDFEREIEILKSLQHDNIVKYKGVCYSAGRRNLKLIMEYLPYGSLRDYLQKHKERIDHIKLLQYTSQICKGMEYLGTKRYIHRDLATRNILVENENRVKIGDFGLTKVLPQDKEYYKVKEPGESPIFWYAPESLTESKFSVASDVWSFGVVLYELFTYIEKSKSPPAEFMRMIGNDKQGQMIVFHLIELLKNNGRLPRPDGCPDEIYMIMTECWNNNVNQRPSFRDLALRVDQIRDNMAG

FGFR1 = FGFR1 (UniProt P11362); experiment: as above
Chain of FGFR1 (P11362 whole entry, looked up): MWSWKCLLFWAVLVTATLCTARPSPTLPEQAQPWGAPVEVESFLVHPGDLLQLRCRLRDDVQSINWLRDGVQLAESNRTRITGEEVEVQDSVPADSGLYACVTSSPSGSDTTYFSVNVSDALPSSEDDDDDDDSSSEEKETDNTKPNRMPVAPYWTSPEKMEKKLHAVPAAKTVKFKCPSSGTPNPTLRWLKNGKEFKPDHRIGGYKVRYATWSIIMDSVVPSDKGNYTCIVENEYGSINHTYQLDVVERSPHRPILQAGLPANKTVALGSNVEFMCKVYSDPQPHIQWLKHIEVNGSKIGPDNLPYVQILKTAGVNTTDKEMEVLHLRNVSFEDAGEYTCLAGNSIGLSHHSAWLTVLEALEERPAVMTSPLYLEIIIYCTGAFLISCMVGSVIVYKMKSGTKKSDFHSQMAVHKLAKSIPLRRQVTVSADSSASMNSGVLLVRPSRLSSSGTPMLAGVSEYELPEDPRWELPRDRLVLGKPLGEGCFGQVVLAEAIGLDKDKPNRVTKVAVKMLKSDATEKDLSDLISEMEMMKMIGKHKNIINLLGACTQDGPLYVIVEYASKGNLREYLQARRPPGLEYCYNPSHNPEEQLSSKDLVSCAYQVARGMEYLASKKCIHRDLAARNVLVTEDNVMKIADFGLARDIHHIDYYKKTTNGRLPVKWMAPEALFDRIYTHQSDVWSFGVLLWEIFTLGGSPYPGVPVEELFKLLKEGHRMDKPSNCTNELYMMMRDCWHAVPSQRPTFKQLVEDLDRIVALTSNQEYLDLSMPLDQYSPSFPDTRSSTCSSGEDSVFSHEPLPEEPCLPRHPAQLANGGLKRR

c-Abl (mouse) = experiment: as above
Fer (mouse) = experiment: as above
EPHB1 = EPHB1 (UniProt P54762); experiment: as above
c-Src = experiment: as above
Hck = Hck (UniProt P08631); experiment: as above
Chain of Hck (P08631 whole entry, looked up): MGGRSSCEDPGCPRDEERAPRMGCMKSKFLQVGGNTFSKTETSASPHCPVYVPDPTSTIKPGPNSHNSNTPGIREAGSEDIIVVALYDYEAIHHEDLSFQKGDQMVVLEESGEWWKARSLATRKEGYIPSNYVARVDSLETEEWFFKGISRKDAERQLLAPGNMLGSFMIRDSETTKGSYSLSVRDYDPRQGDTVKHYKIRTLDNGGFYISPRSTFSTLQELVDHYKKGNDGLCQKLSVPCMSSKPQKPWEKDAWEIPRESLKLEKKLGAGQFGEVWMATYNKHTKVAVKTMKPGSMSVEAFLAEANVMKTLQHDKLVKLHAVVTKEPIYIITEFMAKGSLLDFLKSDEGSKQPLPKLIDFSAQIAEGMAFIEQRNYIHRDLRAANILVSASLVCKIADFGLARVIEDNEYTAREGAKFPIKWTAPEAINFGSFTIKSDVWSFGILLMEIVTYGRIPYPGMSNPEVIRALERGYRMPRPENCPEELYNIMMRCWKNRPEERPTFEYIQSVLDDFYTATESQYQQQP

EPHB2 = EPHB2 (UniProt P29323); experiment: as above
Grb2 SH2 = Grb2 SH2 (UniProt P62993); experiment: SH2 binding enrichment of the phosphorylated peptide, bacterial display (enrichment ratio); higher = better substrate or ligand; peptides without Tyr show the background
Chain of Grb2 SH2 (P62993 whole entry, looked up): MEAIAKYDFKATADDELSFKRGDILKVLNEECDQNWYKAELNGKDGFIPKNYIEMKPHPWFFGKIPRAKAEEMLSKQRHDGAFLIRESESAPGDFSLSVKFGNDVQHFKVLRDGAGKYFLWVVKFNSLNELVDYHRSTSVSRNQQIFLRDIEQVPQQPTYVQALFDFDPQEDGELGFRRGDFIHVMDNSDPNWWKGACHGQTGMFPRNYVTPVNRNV

c-Src SH2 = experiment: as above
SHP2-C SH2 = experiment: as above
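Wherever SH2 binding enrichment of the phosphorylated peptide, bacterial display is given: peptide library displayed on the E. coli surface as eCPX fusions, selected cells deep-sequenced, score is each peptide's frequency after selection divided by its frequency in the input.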
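Wherever phosphorylation enrichment, bacterial display is given: 11-residue human phosphosite peptides and single-mutation variants displayed on the E. coli surface, counted by deep sequencing, each peptide's frequency after selection divided by its frequency in the unselected input library; frequency after pTyr selection over input frequency; kinase dosed for 20-30% of maximal phosphorylation in three min.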

Chain of Fyn (P06241 whole entry, looked up): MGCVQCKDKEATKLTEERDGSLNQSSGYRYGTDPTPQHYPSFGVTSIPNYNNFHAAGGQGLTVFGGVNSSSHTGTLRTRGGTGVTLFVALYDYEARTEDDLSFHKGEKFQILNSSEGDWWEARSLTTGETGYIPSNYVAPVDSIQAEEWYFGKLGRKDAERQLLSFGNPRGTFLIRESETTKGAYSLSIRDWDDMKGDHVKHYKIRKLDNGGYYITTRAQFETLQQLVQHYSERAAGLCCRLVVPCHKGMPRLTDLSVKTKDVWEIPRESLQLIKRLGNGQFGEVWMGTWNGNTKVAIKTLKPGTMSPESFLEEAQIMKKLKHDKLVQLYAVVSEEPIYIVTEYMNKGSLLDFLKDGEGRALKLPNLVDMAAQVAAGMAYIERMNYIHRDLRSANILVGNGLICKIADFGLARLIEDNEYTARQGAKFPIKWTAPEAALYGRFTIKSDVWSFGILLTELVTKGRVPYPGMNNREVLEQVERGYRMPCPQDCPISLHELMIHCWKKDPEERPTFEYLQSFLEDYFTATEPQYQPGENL

| Sequence | phosphorylation enrichment (AncSZ) | phosphorylation enrichment (FGFR3) | phosphorylation enrichment (Fyn) | phosphorylation enrichment (Fes) | phosphorylation enrichment (MERTK) | phosphorylation enrichment (Jak2) | phosphorylation enrichment (FGFR1) | phosphorylation enrichment (c-Abl (mouse)) | phosphorylation enrichment (Fer (mouse)) | phosphorylation enrichment (EPHB1) | phosphorylation enrichment (c-Src) | phosphorylation enrichment (Hck) | phosphorylation enrichment (EPHB2) | SH2 binding enrichment (Grb2 SH2) | SH2 binding enrichment (c-Src SH2) | SH2 binding enrichment (SHP2-C SH2) |
| --- | --- | --- | --- | --- | --- | --- | --- | --- | --- | --- | --- | --- | --- | --- | --- | --- |
| AKVKPYINGTS [IBTK_Y1064_V1065I] | 0.471 | 0.408 | 0.343 | 0.503 | 0.358 | 0.369 | 0.297 | 0.404 | 0.274 | 0.295 | 0.294 | 0.359 | 0.274 | 0.999 | 0.737 | 1.05 |
| LGSWTYTKTVS [ROS1_Y144] | 1.94 | 1.44 | 0.86 | 2.38 | 0.519 | 1.61 | 1.19 | 0.965 | 0.8 | 2.19 | 0.774 | 1.05 | 1.04 | 0.817 | 0.415 | 0.64 |
| NYSKMYCNPDA [KNL1_Y489_A486S] | 0.794 | 0.521 | 0.396 | 0.914 | 0.414 | 0.819 | 0.483 | 0.566 | 0.435 | 0.536 | 0.349 | 0.469 | 0.45 | 3.18 | 2.63 | 0.819 |
| AARVSYWLASG [DCHS1_Y1582_R1583W] | 1.18 | 0.781 | 0.573 | 1.17 | 0.443 | 0.825 | 0.622 | 0.617 | 0.634 | 0.613 | 0.364 | 0.555 | 0.732 | 1.17 | 0.527 | 0.733 |
| FKGKNYKPLDL [RPL35_Y78_K77N_YF] | 0.432 | 0.418 | 0.354 | 0.641 | 0.359 | 0.663 | 0.393 | 0.618 | 0.471 | 0.262 | 0.487 | 0.38 | 0.385 | 0.962 | 0.613 | 0.644 |
| PSDPSYEDTRE [BMPR1A_Y467_M470T] | 1.66 | 1.18 | 0.887 | 2.73 | 0.827 | 2.37 | 0.813 | 1.71 | 0.894 | 0.765 | 1.14 | 1.19 | 0.883 | 1.77 | 1.73 | 1.52 |
| NGSFLYVIISQ [LRP1B_Y1988_R1987L] | 1.27 | 0.88 | 0.367 | 1.44 | 0.468 | 1.2 | 0.468 | 0.931 | 0.663 | 0.844 | 0.403 | 0.539 | 0.666 | 0.68 | 0.47 | 0.546 |
| KNKKDYYDMYE [SLC26A3_Y526] | 1.13 | 4.04 | 0.601 | 0.851 | 0.408 | 0.67 | 6.27 | 0.579 | 0.543 | 1.13 | 0.579 | 0.73 | 0.738 | 0.962 | 1.03 | 0.937 |
| YGTAQYCCRMG [LRRK2_Y2023_I2020T] | 0.719 | 0.603 | 1.01 | 0.613 | 2.78 | 0.506 | 0.498 | 3.23 | 0.603 | 0.714 | 0.757 | 1.2 | 9.81 | 0.991 | 0.823 | 0.752 |
| LGGAMYFLEAE [PKHD1_Y452_YF] | 1.53 | 1.51 | 1.13 | 1.8 | 0.709 | 1.34 | 0.62 | 0.784 | 0.623 | 0.999 | 1.01 | 1.07 | 0.984 | 0.868 | 0.802 | 0.75 |
| LLNPRYNLPLD [TOM1L1_Y109] | 1.14 | 0.767 | 0.63 | 0.952 | 1.16 | 0.83 | 0.645 | 1.32 | 0.62 | 0.54 | 0.59 | 0.741 | 0.822 | 0.856 | 1.16 | 0.827 |
| FIGRIYLFLTK [GARS1_Y414_YF] | 1.61 | 0.813 | 0.567 | 1.45 | 0.586 | 1.38 | 0.542 | 1.31 | 0.707 | 0.83 | 0.632 | 0.564 | 0.632 | 1.57 | 0.879 | 1.22 |
| KGEDFYCVTCP [FHL1_Y149_H154P] | 1.47 | 1.04 | 4.22 | 1.01 | 6.08 | 1.33 | 1.15 | 0.646 | 2.65 | 0.586 | 3.64 | 2.96 | 0.589 | 1.01 | 1.04 | 0.644 |
| TSQSQYFSFRE [CCDC170_Y323] | 0.745 | 1.49 | 3.07 | 0.891 | 0.818 | 1.29 | 1.62 | 0.604 | 0.461 | 0.315 | 4.89 | 1.72 | 0.368 | 1.15 | 0.796 | 0.999 |
| ATPSRYMTFLH [DYNC2H1_Y2872] | 0.667 | 0.574 | 0.435 | 0.748 | 0.396 | 0.656 | 0.329 | 0.527 | 0.457 | 0.505 | 0.482 | 0.487 | 0.403 | 0.757 | 1.32 | 8.55 |
| SKEPFYVHCIK [MYO1D_Y586_R588H_YF] | 1.08 | 0.682 | 0.44 | 1.07 | 0.433 | 0.864 | 0.484 | 0.631 | 0.467 | 0.614 | 0.418 | 0.528 | 0.577 | 0.981 | 0.574 | 0.898 |
| FPIDHYLGKEM [G6PD_Y202_R198P_YF] | 0.789 | 0.619 | 0.396 | 0.903 | 0.391 | 0.685 | 0.492 | 0.524 | 0.469 | 0.404 | 0.489 | 0.68 | 0.485 | 0.908 | 0.497 | 0.716 |
| GITTGYLVLKE [DNMT3B_Y588_A585T] | 0.668 | 0.572 | 0.404 | 0.797 | 0.334 | 0.616 | 0.456 | 0.389 | 0.542 | 0.39 | 0.371 | 0.438 | 0.532 | 0.907 | 0.746 | 2.06 |
| SFPPTYRFERG [INPPL1_Y661_YF] | 0.638 | 0.476 | 0.412 | 0.603 | 0.418 | 0.51 | 0.393 | 0.556 | 0.362 | 0.405 | 0.592 | 0.369 | 0.626 | 0.868 | 0.442 | 0.767 |
| RSHLSYDVTPE [IQGAP3_Y1098_P1097S] | 0.733 | 0.924 | 0.509 | 1.14 | 0.594 | 1.05 | 0.473 | 0.982 | 0.453 | 0.767 | 0.561 | 0.432 | 0.717 | 0.951 | 0.555 | 0.787 |
| SWDKRYCEAGC [ITGA2B_Y197_F202C] | 0.859 | 0.541 | 0.454 | 0.887 | 0.401 | 0.641 | 0.507 | 0.984 | 0.383 | 0.446 | 0.357 | 0.417 | 0.41 | 0.957 | 0.651 | 1.23 |
| WKKKIYEESST [MOCS2_Y170_E168K] | 0.818 | 0.813 | 0.534 | 1.05 | 0.432 | 0.794 | 0.423 | 0.761 | 0.449 | 0.393 | 0.448 | 0.511 | 0.526 | 0.62 | 0.415 | 0.481 |
| EIASHYRHLLR [ZBTB46_Y14_T11A] | 0.597 | 0.528 | 0.428 | 0.585 | 0.421 | 0.703 | 0.416 | 0.415 | 0.516 | 0.357 | 0.421 | 0.573 | 0.42 | 0.759 | 0.522 | 0.794 |
| PVKAAYQKVVA [HBB_Y131_Q128K] | 0.714 | 0.766 | 0.648 | 0.823 | 0.523 | 0.95 | 0.539 | 2.43 | 0.588 | 1.14 | 0.753 | 0.539 | 0.491 | 0.968 | 0.615 | 0.879 |
| KVKVEYDMTVP [AHNAK_Y964_G962V] | 0.94 | 0.646 | 0.492 | 1.03 | 0.478 | 0.872 | 0.495 | 0.862 | 0.51 | 0.45 | 0.555 | 0.485 | 0.59 | 0.838 | 0.79 | 0.659 |
| AFPVSYSSSGA [RET_Y687] | 0.511 | 0.406 | 0.344 | 0.541 | 0.454 | 0.52 | 0.407 | 0.53 | 0.392 | 0.455 | 0.477 | 0.303 | 0.314 | 0.767 | 0.506 | 0.65 |
| RLLVVYPWTQG [HBG2_Y36_R41G] | 0.894 | 0.58 | 0.499 | 0.932 | 0.27 | 0.987 | 0.603 | 0.593 | 0.289 | 0.542 | 0.305 | 0.416 | 0.378 | 2.61 | 1.66 | 1.82 |
| SNKLHYQLEQE [PDPR_Y110_Y109H] | 0.917 | 0.673 | 0.519 | 1 | 0.442 | 0.699 | 0.496 | 0.647 | 0.498 | 0.504 | 0.443 | 0.535 | 0.505 | 1.01 | 0.72 | 0.783 |
| YRRITYHNWRH [PDE6B_Y556] | 0.642 | 0.425 | 0.525 | 0.637 | 0.562 | 0.585 | 0.386 | 0.53 | 0.452 | 0.376 | 0.606 | 0.477 | 0.362 | 1.15 | 0.453 | 0.553 |
